B1: Dual specificity mitogen-activated protein kinase kinase 3 (Homo sapiens), P46734 (parent)
chain: MESPASSQPASMPQSKGKSKRKKDLRISCMSKPPAPNPTPPRNLDSRTFITIGDRNFEVEADDLVTISELGRGAYGVVEKVRHAQSGTIMAVKRIRATVNSQEQKRLLMDLDINMRTVDCFYTVTFYGALFREGDVWICMELMDTSLDKFYRKVLDKNMTIPEDILGEIAVSIVRALEHLHSKLSVIHRDVKPSNVLINKEGHVKMCDFGISGYLVDSVAKTMDAGCKPYMAPERINPELNQKGYNVKSDVWSLGITMIEMAILRFPYESWGTPFQQLKQVVEEPSPQLPADRFSPEFVDFTAQCLRKNPAERMSYLELMEHPFFTLHKTKKTDIAAFVKEILGEDS

Variants of: B1
Details: with dyr1b_human DYRK1B

effect of a mutation on the interaction	Variant
increasing interaction	S218E
increasing interaction	T222E

Source: IntAct's records for PubMed 11980910
